Assay results: publication doi:10.1101/2022.01.19.476892

Target: SARS-CoV S-6P protein (SARS-CoV) (UniProt P59594)
Test: cryo-EM structure

Substance: SARS-CoV S-6P protein (from UniProt P59594 14-1195) (domain or fragment)
- stoichiometry N: 3
